Experimental data: patent US20070231897A1, “Induction of Insulin Secreting Cell” (KYOTO UNIVERSITY, priority 2004, published 2007)

System: pancreatic acinar cells
Experiment: Effect of growth factors on insulin-positive cell induction in main culture of pancreatic acinar cells
Format: cell-based, mouse
Conditions: day 7 of culture; EGF 20 ng/ml, HGF, FGF7 and FGF10 10 ng/ml, GLP-1 30 ng/ml; rank among growth factors (FIG. 8B)
Protocol: Eight-week old male mice (C57B1/6Cr Slc)(Japan SLC, Inc.: Hamamatsu, Japan) were anesthetized with 50 mg/kg of Nembtal (Dainippon Pharma Co., Ltd.: Osaka, Japan) and subjected to laparotomy. The choledoch duct was ligated near the position where it opens to the duodenum. Using a 27G winged needle (Terumo Corporation: Tokyo, Japan), 2-3 ml of Hank's buffer containing 0.05% collagenase P (Roche: Basel, Switzerland) and 10% fetal bovine serum was infused from the liver side. The pancreas, now swollen, was extracted and digested in 5 ml of Hank's buffer per pancreas for 18 minutes at 37° C. The digested pancreas then was made to pass through a 14G indwelling needle in both directions twice to disperse the pancreatic cells, which washed well with Hank's buffer containing 0.1% bovine serum albumin (Sigma: Saint Louis, Mo., USA). The pancreatic cells thus obtained were suspended in a mixed solution (solution A) consisting of 8.3% Ficoll 400 (Amersham Bioscience: Uppsala, Sweden) and 16.7% Conray 400 (Daiichi Pharmaceutical, Tokyo, Japan), and after a 87.5%-diluted solution of solution A and then a 50%-diluted solution of solution A were placed on it in the order, centrifuged (2,000 rpm, 10 min). […]

B1: fibroblast growth factor 10 (protein, UniProt O15520 38-208, looked up)
Fibroblast growth factor 10: QALGQDMVSPEATNSSSSSFSSPSSAGRHVRSYNHLQGDVRWRKLFSFTKYFLKIEKNGKVSGTKKENCPYSILEITSVEIGVVAVKAINSNYYLAMNKKGKLYGSKEFNNDCKLKERIEENGYNTYASFNWQHNGRQMYVALNGKGAPRRGQKTRRKNTSAHFLPMVVHS
notes: fibroblast growth factor 10 (R&D Systems), growth factor added to the culture medium
Q: How did the “proportion of insulin-positive cells” value turn out when B1 was run?
A: this was followed by FGF10 and HGF
